The numbers were not newly measured in patent publication US20240307501A1 (priority 2021, published 2024), which cites them from elsewhere.

For the data set the following is noted: chronic doses of glucagon, patients with CHI, across 2 studies.

With “Glucagon: native glucagon used off-label by IV or continuous SC infusion for CHI”, the “patients with erythema necrolyticum” value is on record as 4 out of 11.
